The results in this text go back to US11781101B2, “3D-printed models of biological microenvironments” (Regents of the University of Minnesota, priority 2018, dated 2023).

The subject of experiment [1] is A549 cells in HUVEC-lined conduit. Description: Vascularized extravasation model, EGF capsules. To be noted: EGF gradients from ruptured capsules, fibroblast-laden gel, by day 4. It counts as cell-based. The source says: FIG. 24A is confocal images of a top view and a side view of a representative microchannel lined by HUVECs within a fibrin gel, such as in the context of the example 3D-printed culture chamber of FIG. 23. FIG. 24B is a fluorescence image of a representative microchannel lined by HUVECs and perfused by fluorescent fluid. In the example of FIG. 24A, a microchannel was created using the pin-molding technique within the fibrin gel of the culture chamber. […]
FIG. 26A is fluorescence images of a conduit of an example vascularized 3D-printed culture chamber illustrating guided extravasation of A549s and subsequent metastases generated over time on days 0 and 2 following the programmable release of EGF from EGF-containing programmable release capsules in accordance with examples of this disclosure. FIG. 26B is fluorescence images of the conduit of FIG. 26A illustrating guided extravasation of A549s and subsequent metastases generated over time on days 4 and 6 following laser-triggered rupture of EGF-containing programmable-release capsules (inset: fluorescence image showing transendothelial formation of metastasis). […]
FIG. 27 is fluorescence images showing the vascularized extravasation model of FIG. 26 after A549s were injected within the conduit without rupture of EGF capsules. […]

The subject of experiment [2] is RFP-expressing HUVEC cells. Nature of the experiment: 3D-printed directional cell migration chamber, EGF capsules, HUVEC. To be noted: EGF capsules sequentially ruptured over 10 days. It counts as cell-based, human. The source says: (§1) FIG. 21 is a graphical representation of relative selective directed migration of A549 tumor cells, M4A4 tumor cells, and non-tumor HUVEC cells of FIGS. 20A and 20B in response to laser rupture of the EGF-containing programmable release capsules within an example cell migration chamber in accordance with examples of this disclosure. FIG. 21 illustrates distributions of GFP-A549s, GFP-M4A4s, and RFP-HUVECs on day 10, showing the selective directed migration of tumor cells but not HUVECs (mean±s.d., n=4 per group). Scale bar: 500 μm.

Experiment [3] has as its system GFP-expressing M4A4 cells (a melanoma cell line). Description: 3D-printed directional cell migration chamber, EGF capsules, M4A4. It is filed as cell-based. Particulars: EGF capsules sequentially ruptured over 10 days.
Source text: as §1

In experiment [4] the test system is GFP-A549 lung cancer cells. Description: 3D-printed directional cell migration chamber, EGF capsules, A549. It counts as cell-based. An excerpt: In the example experiment illustrated in FIG. 14, a droplet of fibrin loaded with GFP-A549 lung cancer cells 1400 was printed between linear arrays of chemoattractant capsules 1404 (right) and blank control capsules 1402 (left). The printed droplet defined the primary site of the tumor cells 1400. To generate a long-lasting EGF gradient, capsules 1402 and 1404 were ruptured sequentially at 2-day intervals, starting with the capsule 1408A closest to the cell 1400. Concomitantly, a corresponding control capsule 1408B was also ruptured. The resulting EGF gradient and GFP-A549 response to the gradient is discussed below with respect to FIGS. 15A-17.
FIG. 15B is panoramic fluorescence images illustrating distribution of the GFP-expressing A549 cells of FIG. 15A over time during days 6-10 post-laser rupture of the EGF-containing programmable-release capsules of FIG. 15A. […]
FIG. 16 is a graphical representation of cellular fluorescence intensity of example EGF-expressing A549 cells vs time, with and without EGF release from example programmable-release capsules within a cell migration chamber in accordance with examples of this disclosure. […] The cellular growth rates were first quantitatively compared between samples with and without laser-triggered release of EGF by directly analyzing the fluorescence intensity of GFP-expressing cells. […]

B1: EGF: EGF, a chemoattractant of carcinoma cells, encapsulated in programmable-release capsules (protein, UniProt P01133 23-1207, looked up)
Pro-epidermal growth factor: PQHWSCPEGTLAGNGNSTCVGPAPFLIFSHGNSIFRIDTEGTNYEQLVVDAGVSVIMDFHYNEKRIYWVDLERQLLQRVFLNGSRQERVCNIEKNVSGMAINWINEEVIWSNQQEGIITVTDMKGNNSHILLSALKYPANVAVDPVERFIFWSSEVAGSLYRADLDGVGVKALLETSEKITAVSLDVLDKRLFWIQYNREGSNSLICSCDYDGGSVHISKHPTQHNLFAMSLFGDRIFYSTWKMKTIWIANKHTGKDMVRINLHSSFVPLGELKVVHPLAQPKAEDDTWEPEQKLCKLRKGNCSSTVCGQDLQSHLCMCAEGYALSRDRKYCEDVNECAFWNHGCTLGCKNTPGSYYCTCPVGFVLLPDGKRCHQLVSCPRNVSECSHDCVLTSEGPLCFCPEGSVLERDGKTCSGCSSPDNGGCSQLCVPLSPVSWECDCFPGYDLQLDEKSCAASGPQPFLLFANSQDIRHMHFDGTDYGTLLSQQMGMVYALDHDPVENKIYFAHTALKWIERANMDGSQRERLIEEGVDVPEGLAVDWIGRRFYWTDRGKSLIGRSDLNGKRSKIITKENISQPRGIAVHPMAKRLFWTDTGINPRIESSSLQGLGRLVIASSDLIWPSGITIDFLTDKLYWCDAKQSVIEMANLDGSKRRRLTQNDVGHPFAVAVFEDYVWFSDWAMPSVMRVNKRTGKDRVRLQGSMLKPSSLVVVHPLAKPGADPCLYQNGGCEHICKKRLGTAWCSCREGFMKASDGKTCLALDGHQLLAGGEVDLKNQVTPLDILSKTRVSEDNITESQHMLVAEIMVSDQDDCAPVGCSMYARCISEGEDATCQCLKGFAGDGKLCSDIDECEMGVPVCPPASSKCINTEGGYVCRCSEGYQGDGIHCLDIDECQLGEHSCGENASCTNTEGGYTCMCAGRLSEPGLICPDSTPPPHLREDDHHYSVRNSDSECPLSHDGYCLHDGVCMYIEALDKYACNCVVGYIGERCQYRDLKWWELRHAGHGQQQKVIVVAVCVVVLVMLLLLSLWGAHYYRTQKLLSKNPKNPYEESSRDVRSRRPADTEDGMSSCPQPWFVVIKEHQDLKNGGQPVAGEDGQAADGSMQPTSWRQEPQLCGMGTEQGCWIPVSSDKGSCPQVMERSFHMPSYGTQTLEGGVEKPHSLLSANPLWQQRALDPPHQMELTQ
modifications: Pro-epidermal growth factor encapsulated in programmable-release capsules
In the case of B1, the “transendothelial behavior (extravasation) of A549s” value in experiment [1] was “cells underwent both extravasation and proliferation”. In addition, the “migratory response of HUVECs to EGF gradients” value in experiment [2] is recorded as “negative migratory response”. Moreover, the “directed migration of M4A4 cells” value in experiment [3] is recorded as “exhibited directional movement”. In experiment [4] (guidance of EGF cues from sequentially laser-ruptured capsules in fibrin gel, x-direction displacement, mean±s.d., n=4), the “maximum cell velocity of leading A549 cells” value amounted to 15.48±1.05 μm/h. The “growth (proliferation) of tumor cells, cellular fluorescence intensity” value in experiment [4] (laser-triggered EGF release vs no release, 10 days) is “accelerated”.
